Results as given in paper PMC9798004 (Frontiers in Psychiatry, 2022).
No end group written: not given here.

Experiments:
Experiment in all cases: PathHunter β-arrestin assay
Format in all cases: cell-based
[1] = molecular target: T1, MRGPRX1 (Homo sapiens, UniProt Q96LB2); settings: screen, control agonist; CHO, 37C, 2HR
T1 construct: purchased Eurofins DiscoverX (PathHunter gpcrMAX)

[2] = molecular target: T2, MRGPRX2 (Homo sapiens, UniProt Q96LB1); settings: control agonist
T2 sequence (Q96LB1 1-330): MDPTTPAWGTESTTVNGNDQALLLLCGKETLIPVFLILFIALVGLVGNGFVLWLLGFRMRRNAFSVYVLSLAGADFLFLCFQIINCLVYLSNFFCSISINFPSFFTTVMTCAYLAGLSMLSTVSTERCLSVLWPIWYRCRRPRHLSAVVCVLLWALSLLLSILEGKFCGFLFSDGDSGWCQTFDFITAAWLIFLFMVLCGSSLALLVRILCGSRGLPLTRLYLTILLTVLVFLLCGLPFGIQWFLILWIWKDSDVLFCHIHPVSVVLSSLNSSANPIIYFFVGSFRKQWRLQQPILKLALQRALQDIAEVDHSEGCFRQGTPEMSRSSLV
Protocol: (§1) Follow up experiments were prioritized based on the difference between S/N and CoV. Targets with a >5-fold difference between S/N and CoV were investigated for their potential contribution to the AMB-FUBINACA toxidrome with 10-point concentration-response curves generated in technical replicate (range 1.5–30 μM) using the EC80 of the relevant agonist, where applicable in antagonist mode. Simultaneous agonist and antagonist curves were run in parallel to ensure reliability of the assay (see Supplementary Table 2), with both RC50 and signal to background aligning with historical averages, and Z' >0.5. RC50 was estimated using a four-parameter fit (CBIS Data Analysis Suite, ChemInnovation, San Diego, CA) on normalized data.

[3] = molecular target: T3, GLP2R (Homo sapiens, UniProt O95838); settings: control agonist
T3 sequence (O95838 1-553): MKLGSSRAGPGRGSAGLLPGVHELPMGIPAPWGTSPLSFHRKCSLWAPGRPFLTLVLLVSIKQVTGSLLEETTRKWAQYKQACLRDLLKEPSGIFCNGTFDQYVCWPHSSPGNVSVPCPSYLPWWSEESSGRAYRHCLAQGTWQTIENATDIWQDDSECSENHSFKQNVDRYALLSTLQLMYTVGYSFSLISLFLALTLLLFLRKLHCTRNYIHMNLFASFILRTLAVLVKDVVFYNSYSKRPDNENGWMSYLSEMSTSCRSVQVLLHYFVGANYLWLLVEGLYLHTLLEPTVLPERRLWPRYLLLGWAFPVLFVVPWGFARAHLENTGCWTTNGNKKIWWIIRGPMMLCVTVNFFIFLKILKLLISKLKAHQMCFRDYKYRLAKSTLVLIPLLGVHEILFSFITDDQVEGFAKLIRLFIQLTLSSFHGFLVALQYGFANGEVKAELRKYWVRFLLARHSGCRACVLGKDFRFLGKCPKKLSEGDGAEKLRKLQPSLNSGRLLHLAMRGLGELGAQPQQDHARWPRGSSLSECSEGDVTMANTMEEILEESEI
Protocol: as §1

[4] = molecular target: T4, GRPR (Homo sapiens, UniProt P30550); settings: control agonist
T4 construct: purchased Eurofins DiscoverX (PathHunter gpcrMAX)
Protocol: as §1

[5] = molecular target: T5, MCHR2 (Homo sapiens, UniProt Q969V1); settings: screen, control agonist; U2OS, 37C, 2HR
T5 construct: purchased Eurofins DiscoverX (PathHunter gpcrMAX)

[6] = molecular target: T6, MLNR (Homo sapiens, UniProt O43193); settings: screen, control agonist; CHO, 37C, 2HR
T6 construct: purchased Eurofins DiscoverX (PathHunter gpcrMAX)

[7] = molecular target: T7, NMU1R (Homo sapiens, UniProt Q9HB89); settings: screen, control agonist; U2OS, 37C, 2HR
T7 construct: purchased Eurofins DiscoverX (PathHunter gpcrMAX)
T7 sequence (Q9HB89 1-426): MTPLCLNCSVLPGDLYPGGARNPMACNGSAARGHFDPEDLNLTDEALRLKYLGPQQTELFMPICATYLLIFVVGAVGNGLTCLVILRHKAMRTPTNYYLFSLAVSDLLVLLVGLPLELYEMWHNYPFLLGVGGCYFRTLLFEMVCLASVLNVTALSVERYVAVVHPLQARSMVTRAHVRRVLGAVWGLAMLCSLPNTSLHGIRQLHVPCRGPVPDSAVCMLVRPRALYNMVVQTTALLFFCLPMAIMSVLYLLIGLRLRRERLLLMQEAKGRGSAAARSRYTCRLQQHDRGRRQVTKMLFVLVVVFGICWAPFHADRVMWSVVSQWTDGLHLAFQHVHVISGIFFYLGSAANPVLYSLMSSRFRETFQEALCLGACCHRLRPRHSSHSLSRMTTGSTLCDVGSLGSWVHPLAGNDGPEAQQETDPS

[8] = molecular target: T8, NPBWR2 (Homo sapiens, UniProt P48146); settings: screen, control agonist; CHO, 37C, 2HR
T8 construct: purchased Eurofins DiscoverX (PathHunter gpcrMAX)

[9] = molecular target: T9, NPBWR1 (Homo sapiens, UniProt P48145); settings: screen, control agonist; CHO, RT, 2HR
T9 construct: purchased Eurofins DiscoverX (PathHunter gpcrMAX)
T9 sequence (P48145 1-328): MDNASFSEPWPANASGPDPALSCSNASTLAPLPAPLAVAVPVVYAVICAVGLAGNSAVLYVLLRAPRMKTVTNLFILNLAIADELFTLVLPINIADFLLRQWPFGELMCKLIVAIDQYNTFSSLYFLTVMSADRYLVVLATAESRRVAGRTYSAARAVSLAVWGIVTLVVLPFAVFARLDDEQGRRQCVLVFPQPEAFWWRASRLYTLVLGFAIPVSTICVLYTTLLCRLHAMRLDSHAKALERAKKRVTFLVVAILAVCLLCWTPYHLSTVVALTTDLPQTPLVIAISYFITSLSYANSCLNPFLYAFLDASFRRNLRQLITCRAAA

[10] = molecular target: T10, NPFFR1 (Homo sapiens, UniProt Q9GZQ6); settings: screen, control agonist; CHO, 37C, 2HR
T10 construct: purchased Eurofins DiscoverX (PathHunter gpcrMAX)

[11] = molecular target: T11, CCR10 (Homo sapiens, UniProt P46092); settings: control agonist
T11 sequence (P46092 1-362): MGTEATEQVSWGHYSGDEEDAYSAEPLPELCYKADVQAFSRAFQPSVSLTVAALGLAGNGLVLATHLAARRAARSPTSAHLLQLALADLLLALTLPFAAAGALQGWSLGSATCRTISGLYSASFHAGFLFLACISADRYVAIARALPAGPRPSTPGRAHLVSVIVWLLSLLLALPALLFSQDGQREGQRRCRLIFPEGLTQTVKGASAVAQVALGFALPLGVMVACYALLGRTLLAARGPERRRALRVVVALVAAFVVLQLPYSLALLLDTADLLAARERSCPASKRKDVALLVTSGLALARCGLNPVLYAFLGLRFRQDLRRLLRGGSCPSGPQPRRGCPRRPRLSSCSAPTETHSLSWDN
Protocol: as §1

[12] = follow-up concentration-response assays

T4 sequence (P30550 whole entry): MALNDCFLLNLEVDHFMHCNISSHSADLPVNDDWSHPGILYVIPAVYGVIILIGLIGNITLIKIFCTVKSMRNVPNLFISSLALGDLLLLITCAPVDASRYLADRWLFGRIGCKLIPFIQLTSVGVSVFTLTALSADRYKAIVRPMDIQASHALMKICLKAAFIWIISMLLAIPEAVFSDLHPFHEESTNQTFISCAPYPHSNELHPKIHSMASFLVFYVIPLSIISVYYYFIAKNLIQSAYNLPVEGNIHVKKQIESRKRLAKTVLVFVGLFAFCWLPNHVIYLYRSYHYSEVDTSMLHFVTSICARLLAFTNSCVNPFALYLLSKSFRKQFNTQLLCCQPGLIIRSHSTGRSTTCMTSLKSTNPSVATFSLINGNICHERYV
T6 sequence (O43193 whole entry): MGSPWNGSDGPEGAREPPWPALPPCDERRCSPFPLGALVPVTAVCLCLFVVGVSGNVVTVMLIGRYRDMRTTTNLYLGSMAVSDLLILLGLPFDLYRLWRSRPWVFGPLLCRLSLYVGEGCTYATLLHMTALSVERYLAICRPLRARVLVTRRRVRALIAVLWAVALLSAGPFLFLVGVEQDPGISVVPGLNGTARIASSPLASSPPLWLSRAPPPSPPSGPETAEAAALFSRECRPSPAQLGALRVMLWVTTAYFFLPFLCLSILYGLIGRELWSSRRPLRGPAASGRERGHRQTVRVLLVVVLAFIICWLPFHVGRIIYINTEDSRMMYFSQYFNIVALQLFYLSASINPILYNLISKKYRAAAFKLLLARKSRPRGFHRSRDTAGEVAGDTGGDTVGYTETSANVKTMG
T1 sequence (Q96LB2 whole entry): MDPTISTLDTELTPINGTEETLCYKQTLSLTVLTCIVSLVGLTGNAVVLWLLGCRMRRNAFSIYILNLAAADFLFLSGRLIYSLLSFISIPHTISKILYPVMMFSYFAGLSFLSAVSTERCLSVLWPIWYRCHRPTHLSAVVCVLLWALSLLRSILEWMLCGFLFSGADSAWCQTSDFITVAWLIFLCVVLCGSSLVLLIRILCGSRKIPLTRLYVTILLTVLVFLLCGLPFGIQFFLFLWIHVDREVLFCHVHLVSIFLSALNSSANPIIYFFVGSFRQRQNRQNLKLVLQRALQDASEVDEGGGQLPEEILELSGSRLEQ
T5 sequence (Q969V1 whole entry): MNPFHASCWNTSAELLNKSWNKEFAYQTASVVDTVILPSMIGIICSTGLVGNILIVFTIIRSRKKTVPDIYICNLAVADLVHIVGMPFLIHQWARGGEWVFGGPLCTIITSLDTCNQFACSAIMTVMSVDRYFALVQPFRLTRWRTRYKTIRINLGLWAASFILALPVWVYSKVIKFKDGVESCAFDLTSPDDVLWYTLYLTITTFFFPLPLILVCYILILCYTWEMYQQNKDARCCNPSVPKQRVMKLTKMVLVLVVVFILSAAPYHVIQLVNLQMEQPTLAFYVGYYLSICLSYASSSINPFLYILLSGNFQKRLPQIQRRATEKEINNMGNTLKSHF
T10 sequence (Q9GZQ6 whole entry): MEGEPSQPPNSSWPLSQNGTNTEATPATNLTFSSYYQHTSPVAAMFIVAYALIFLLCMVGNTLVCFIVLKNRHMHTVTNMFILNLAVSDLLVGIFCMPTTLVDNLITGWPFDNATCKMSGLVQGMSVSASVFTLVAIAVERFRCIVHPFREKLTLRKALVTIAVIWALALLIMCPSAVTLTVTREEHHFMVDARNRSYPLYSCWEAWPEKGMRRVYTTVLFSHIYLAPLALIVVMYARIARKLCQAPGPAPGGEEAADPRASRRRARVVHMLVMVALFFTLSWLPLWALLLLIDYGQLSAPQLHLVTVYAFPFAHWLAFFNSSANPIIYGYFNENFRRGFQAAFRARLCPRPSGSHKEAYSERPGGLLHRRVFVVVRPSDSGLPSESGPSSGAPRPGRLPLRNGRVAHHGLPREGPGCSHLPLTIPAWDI
T8 sequence (P48146 whole entry): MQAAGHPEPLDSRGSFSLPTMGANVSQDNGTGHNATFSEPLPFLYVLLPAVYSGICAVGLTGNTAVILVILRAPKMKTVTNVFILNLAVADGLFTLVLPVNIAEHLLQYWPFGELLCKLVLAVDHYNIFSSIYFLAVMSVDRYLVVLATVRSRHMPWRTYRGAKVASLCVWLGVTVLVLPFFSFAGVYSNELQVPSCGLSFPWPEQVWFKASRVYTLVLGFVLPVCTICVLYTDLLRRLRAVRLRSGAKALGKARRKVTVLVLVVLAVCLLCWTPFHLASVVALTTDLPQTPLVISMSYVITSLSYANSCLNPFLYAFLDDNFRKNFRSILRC

BAM(8-22)
EC80 [1]: 8580 nM

Cortistatin 14 (PCKNFFWKTFSSCK; ends and bridges not checked; cysteine pairing not given here; UniProt Q62949 99-112, looked up) [control agonist]
EC80 [2, 12]: 737.5 nM | EC80 ([2]; screen, CHO, 37C, 2HR): 738 nM

GLP II (1-33)
EC80 [3, 12]: 2.96 nM | EC80 ([3]; screen, CHO, 37C, 2HR): 8.88 nM

GRP: control agonist for GRPR (VPLPAGGGTVLTKMYPRGNHWAVGHLM; not fully specified (C-terminus); UniProt P07492 24-50, looked up)
EC80 [4, 12]: 1.95 nM | EC80 ([4]; screen, U20S, 37C, 2HR): 5.85 nM

MCH: control agonist for MCHR1 and MCHR2
EC80 [5]: 59.3 nM

Motilin
EC80 [6]: 5.69 nM

Neuromedin U-25 (FRVDEEFQSPFASQSRGYFLFRPRN; ends and bridges not checked; UniProt P48645 142-166, looked up) [control agonist]
EC80 [7]: 3.63 nM

Neuropeptide W23 (WYKHVASPRYHTVGRAAGLLMGL; Neuropeptide W-23; UniProt Q8N729 33-55, looked up) [control agonist]
EC80 [8]: 4.04 nM | EC80 [9]: 8.1 nM

RFRP-3
EC80 [10]: 148 nM

B1: CCL27: control agonist (protein, UniProt Q9Y4X3 25-112, looked up)
C-C motif chemokine 27: FLLPPSTACCTQLYRKPLSDKLLRKVIQVELQEADGDCHLQAFVLHLAQRSICIHPQNPSLSQWFEHQERKLHGTLPKLNFGMLRKMG
EC80 [11, 12]: 90.49 nM | EC80 ([11]; screen, U2OS, 37C, 2HR): 30.2 nM
